Assay [1] addresses CD3 (UniProt P07766). The assay is described as follows: flow cytometry on Jurkat E6.1 cells, 1 nM, anti-HIS-PE. For orientation: Flow cytometry measures light scatter and fluorescence of single cells or particles in a stream.
In assay [2] the target is CD3 (UniProt P07766). The assay is described as follows: flow cytometry on Jurkat E6.1 cells, 10 nM, anti-HIS-PE.
Assay [3] concerns the target CD3 (UniProt P07766). Kind of assay: flow cytometry on Jurkat E6.1 cells, 100 nM, anti-HIS-PE.
For assay [4], the target named is CD3 (UniProt P07766). Kind of assay: flow cytometry on Jurkat E6.1 cells, 316 nM, anti-HIS-PE.
Assay [5] has as its target CD3 (UniProt P07766). The assay is described as follows: flow cytometry on Jurkat E6.1 cells, 0.32 nM, anti-HIS-PE.
Assay [6] concerns the target CD3 (UniProt P07766). The assay is described as follows: flow cytometry on Jurkat E6.1 cells, 1000 nM, anti-HIS-PE.
Assay [7] deals with CD3 (UniProt P07766). Kind of assay: flow cytometry on Jurkat E6.1 cells, 3.16 nM, anti-HIS-PE.
Assay [8] addresses CD3 (UniProt P07766). The assay is described as follows: flow cytometry on Jurkat E6.1 cells, 31.6 nM, anti-HIS-PE.
The target of assay [9] is T1, CD3 (CD3-positive Jurkat E6.1 cells) (Homo sapiens, UniProt P07766).
T1 construct: Jurkat E6.1 cells, which express CD3 on the cell surface; endogenous in cells; host or cells: Jurkat E6.1
T1 sequence (P07766 23-207): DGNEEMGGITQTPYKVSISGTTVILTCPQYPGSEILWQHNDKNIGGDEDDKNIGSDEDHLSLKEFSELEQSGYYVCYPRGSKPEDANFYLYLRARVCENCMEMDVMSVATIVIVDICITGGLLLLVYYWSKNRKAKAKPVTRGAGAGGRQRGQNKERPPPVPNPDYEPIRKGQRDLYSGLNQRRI
T1 sequence (P09693 23-182 partner): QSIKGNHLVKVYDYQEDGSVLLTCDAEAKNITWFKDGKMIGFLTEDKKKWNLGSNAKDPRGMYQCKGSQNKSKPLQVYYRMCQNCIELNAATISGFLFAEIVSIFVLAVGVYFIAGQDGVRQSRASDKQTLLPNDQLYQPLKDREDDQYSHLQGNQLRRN
T1 sequence (P04234 22-171 partner): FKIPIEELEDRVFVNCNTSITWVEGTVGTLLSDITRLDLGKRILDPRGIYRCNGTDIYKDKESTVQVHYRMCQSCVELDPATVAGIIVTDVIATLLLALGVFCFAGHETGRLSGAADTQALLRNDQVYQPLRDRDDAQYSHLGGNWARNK
T1 sequence (P20963 22-164 partner): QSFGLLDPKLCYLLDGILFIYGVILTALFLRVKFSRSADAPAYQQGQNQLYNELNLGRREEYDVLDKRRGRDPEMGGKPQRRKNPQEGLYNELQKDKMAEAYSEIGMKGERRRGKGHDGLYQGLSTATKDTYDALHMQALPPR
The assay is described as follows: CD3 binding analysis by FACS on CD3-positive cells. Conditions: Table 1. As to the method: Both cell lines were cultured in RPMI 1640 supplemented with 1% pen/strep and 10% fetal bovine serum at a concentration of 2 × 10^5 to 1 × 10^6 cells/ml. Cells were washed in fresh medium before the experiment and 100,000 cells per well were seeded in a 96-wells plate (duplicate wells). The dilution series of 6 antibodies were made in phosphate-buffered saline (PBS). The antibodies were diluted 10 times in the cell suspension and incubated at 4° C. in the dark for 30 minutes. After incubation, the cells were washed twice in cold PBS / 0.5% BSA, and incubated with anti-HIS-PE (only for 200) or anti-lgG1-PE (for all other compounds) at 4° C., in the dark for 30 minutes. After the second incubation step, the cells were washed twice. 7AAD was added as a live-dead staining. Detection of the fluorescence in the Yellow-B channel (anti-IgG1-PE and anti-HIS-PE) and the Red-B channel (7AAD) was done with the Guava 5HT flow cytometer. Median fluorescence intensity in the Yellow-B channel (anti-IgG1-PE and anti-HIS-PE) in life cells was determined with Kaluza software.

Experimental findings from patent publication US20230364262A1, “VIA CYCLOADDITION BILATERALLY FUNCTIONALIZED ANTIBODIES” (SYNAFFIX B.V., priority 2020, published 2023) are described below.

Chain of CD3 (P07766 23-207): as the sequence (P07766 23-207) above

Consider “Humanized OKT3 (hOKT3) with C-terminal sortase A recognition sequence (scFv)”, for which the median fluorescence intensity in the assay with CD3 [1] is 66.2; with CD3 [2], 110; in the assay with CD3 [3] it was 177; with CD3 [4], 224; with CD3 [5], 63.6; with CD3 [6], 417. Besides, the median fluorescence intensity with CD3 [7] worked out at 83.7; with CD3 [8], 154.

For the substance Rituximab, in assay [9], the “concentration-dependent binding to the CD3 positive Jurkat E6.1 cell line” value is “not”.
